Measured values: PMC6697693
Each block holds one substance with its values, some of them ahead of it.

Biological target: Δ258-UNC-23, stable fragment of UNC-23, fluorescently labelled (C. elegans)
Sequence (main, as listed by the source mutant): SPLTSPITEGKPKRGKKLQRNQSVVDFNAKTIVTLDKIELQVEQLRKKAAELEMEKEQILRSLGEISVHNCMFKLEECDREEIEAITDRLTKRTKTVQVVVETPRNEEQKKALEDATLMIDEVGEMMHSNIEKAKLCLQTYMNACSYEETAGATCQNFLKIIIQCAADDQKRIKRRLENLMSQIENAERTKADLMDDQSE

wild type Hsc70 (nematode Hsc70, HSP-1), sequence (P09446 whole entry): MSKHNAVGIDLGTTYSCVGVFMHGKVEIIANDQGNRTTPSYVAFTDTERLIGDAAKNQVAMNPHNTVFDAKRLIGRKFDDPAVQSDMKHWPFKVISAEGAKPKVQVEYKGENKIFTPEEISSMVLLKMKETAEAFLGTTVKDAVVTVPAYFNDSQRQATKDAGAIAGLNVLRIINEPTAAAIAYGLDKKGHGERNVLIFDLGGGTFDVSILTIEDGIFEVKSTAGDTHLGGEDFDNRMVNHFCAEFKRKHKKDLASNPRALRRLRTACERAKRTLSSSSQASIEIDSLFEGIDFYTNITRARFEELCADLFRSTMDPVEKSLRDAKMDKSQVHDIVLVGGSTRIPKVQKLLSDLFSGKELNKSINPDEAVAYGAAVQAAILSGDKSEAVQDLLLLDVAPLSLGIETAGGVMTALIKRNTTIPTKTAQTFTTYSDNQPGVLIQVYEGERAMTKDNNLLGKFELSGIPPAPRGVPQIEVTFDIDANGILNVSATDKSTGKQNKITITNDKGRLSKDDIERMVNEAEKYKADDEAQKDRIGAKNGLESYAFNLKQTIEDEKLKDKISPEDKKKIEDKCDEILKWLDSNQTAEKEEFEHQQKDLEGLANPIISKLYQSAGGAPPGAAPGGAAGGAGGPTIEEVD

ATPase stimulation (stimulated minus unstimulated turnover), 3 µM Hsc70 A379V with 3 µM UNC-23: 0.02 min⁻¹
Substance: Hsc70 A379V (from UniProt P09446 1-640) (natural protein)

ATPase stimulation (stimulated minus unstimulated turnover), 3 µM Hsc70 D233N with 3 µM UNC-23: 0.12 min⁻¹
Substance: Hsc70 D233N (from UniProt P09446 1-640) (natural protein)

ATPase stimulation (stimulated minus unstimulated turnover), 3 µM Hsc70 D384N with 3 µM UNC-23: 0.24 min⁻¹
Substance: Hsc70 D384N (from UniProt P09446 1-640) (natural protein)

ATPase stimulation (stimulated minus unstimulated turnover), 3 µM Hsc70 with 3 µM UNC-23: 0.18 min⁻¹
Substance: wild type Hsc70 (nematode Hsc70, HSP-1) (from UniProt P09446 1-640) (natural protein)
